This note sets out measurements from article PMC10886158, “A New Phenolic Acid Decarboxylase from the Brown-Rot Fungus Neolentinus lepideus Natively Decarboxylates Biosourced Sinapic Acid into Canolol, a Bioactive Phenolic Compound” (Bioengineering, 2024).

Data set [1] addresses native phenolic acid decarboxylase from Neolentinus lepideus strain BRFM15 (NlePAD) (Neolentinus lepideus (strain BRFM15)). In words: SEC; purified native NlePAD on a Superdex 75 Prep Grade column in buffer A (20 mM sodium phosphate pH 7.5, 0.4 M saccharose, 2 mM DTT); calibrated with BSA, alpha-amylase, ovalbumin, casein and lysozyme; native mass 43-45 kDa compared with the 22 kDa band in SDS-PAGE.

Substrate in data set [2]: COc1cc(/C=C/C(=O)O)ccc1O
Description: purified protein. As to conditions: pH 6, 50 mM sodium phosphate, 45 °C, 0.5-10 mM substrate, 30 min, apparent KM.

Substrate in data set [3]: COc1cc(/C=C/C(=O)O)cc(OC)c1O
In words: HPLC of canolol formed, Lineweaver-Burk plot. Type of data set: biochemical, Neolentinus lepideus. As to conditions: pH 6, 50 mM sodium phosphate, 37 °C, 0.5-10 mM substrate, 30 min, apparent KM.

A word on the stoichiometry N: it is a count of units in the complex or per binding partner. In data set [1], “native phenolic acid decarboxylase from Neolentinus lepideus strain BRFM15 (NlePAD) (enzyme)” gave a stoichiometry N of 2.

B1: NlePAD (Neolentinus lepideus HHB14362 ss-1) (protein)
chain: MSHEGATSEEFKQIEGKRFKYTYGLGWTYEMYFRSLTRCVYRILSGPLAGRVNFQHAHYQKIRDNVWQCSWLEETGTVVSMVVDFDQQTVKTFATFSRGHWDLPDQAKGWKRNPEDMARWRTLAQKGKDQADKHVLVEHAKMSELTSGQGDLPDIDDSWETM
notes: homodimer 2 x 22 kDa (SEC 43-45 kDa)
By Km is commonly meant the substrate concentration at which the rate is half of its maximum. As a reminder, the kcat/Km is the second-order rate constant that governs catalysis at low substrate concentration. For the molecule B1, in data set [2], the Michaelis-Menten constant (Km) was 2.6 mM and the kcat/Km worked out at 14800 M⁻¹ s⁻¹. Besides, in data set [3], the Michaelis constant (Km) is on record as 3.9 mM and the catalytic efficiency (kcat/Km) came to 1600 M⁻¹ s⁻¹.
